# Experiment: soluble on expression in E. coli; label from the status in PepcDB or PDB records
row,Sequence,soluble on expression in E. coli
1,MGSDKIHHHHHHMTSVTPCASSSSEMNDFLQAHPDTQYVDLLISDMNGVVRGKRIERASLHKVYEKGINLPASLFALDINGSTVESTGLGLDIGDADRICFPIPGTLSDEPWQKRPTAQLLMTMHELDGQPFFADPREVLRQVVSKFDDLGLTICAAFELEFYLIDQDNLNGRPQPPRSPISGKRPQSTQVYLIDDLDEYADCLQDMLEAAKEQGLPADAIVKESAPAQFEVNLHHVADPLKACDYAILLKRLIKNVAYDHEMDTTFMAKPYPGQAGNGLHVHISLLDKKTGKNIFASDDPLQSDTLRHAIGGVLETMPASMAFLCPNINSYRRFGAQFYVPNAPSWGLDNRTVAVRVPTDSSENVRLEHRVAGADANPYLMLAAILAGVHHGLTNKVEPEAPIEGNSYEQLEQSLPNNLRDALRALDDSEVLNQYISPDYIDIFVACKESELAEFEVSISDLEYNWYLHTV,not soluble
2,MIYIIQGGRAGNQLFSYAFAQRIRQIYGNEEICFVLSAIKNKAMDDCNGAYWEDSLKYFDVQDYSVSFEDNIVTKEGNLFQRFLYQFWRGSRKLNNIIFSLTGVEFSKFSLLLNRVVFNLISRFGLYIITHGFSESIKKTSFKNKFIYGSFEDNRWFSDIESKLRLEFKPKYNLNEKALQLYNELLNQNAICVSLRKWSIDVHDDSELEKREICDRNYYEKAINHIINTVEKPIFVVFSDDLEWASELMRSIIKDRYPLLVEKGDNNVAEKLFLMSTCKHFIIANSTFSWWAAYLGEFSDKIVVSPNIWFKSNKQFHPLILDDWIKINCQLEHHHHHH,not soluble
3,MAKPIMAKATAVWLVDNTTLSFKQIADFVGMHELEVQGIADGDVAQGVKGFDPIANNQLTQDEIDTAQNNPLHKLKLKFNAAAQGEEKRRGPRYTPLSKRQDRPASILWLVKFHPELTDGQISKLIGTTKPTIQAIRERTHWNISNIQPIDPVALGLCKQSELDMAVQKAAAKKAADAPVMLEHHHHHH,soluble
4,MNREKLMKMANTVRTGGKGTVRRKKKAVHKTTTTDDKRLQSTLKRVGVNSIPAIEEVNIFKDDVVIQFINPKVQASIAANTWVVSGTPQTKKLQDILPQIISQLGPDNLDNLKKLAEQFQKQAPGAGDVPATIQEEDDDDDVPDLVVGETFETPATEEAPKAAAS,soluble
5,MPVVTAVGRRRGFAMPWVSTARSGAVMLANYSAGVCGRVSSPGLNVRKMCLKANTPGAVTWLDTPKRFLSTQTASRCMAVNSSDVVTGRIDPQVLHTPLNTDVDGYAHAMHSSINSGPLEYLPATFSVFPALGDVGDLGGGVGAATYALDRLSNMRSGACVGGGESPWRSLMT,not soluble
6,GMKNVTKASIDDLDSIVHIDIDVIGNDSRRNYIKHSIDEGRCVIVKEDNSISGFLTYDTNFFDCTFLSLIIVSPTKRRRGYASSLLSYMLSHSPTQKIFSSTNESNESMQKVFNANGFIRSGIVENLDEGDPEIIFYTKKLRA,soluble
7,MGSDKIHHHHHHMTLRERRQKHKAQFRQEILDASRELFSQIGYERFSMRKLAAKIEHSPTTIYLYFRDKDDLLYSLCEELFAKLFQSYQDISRGENDPRQVLRLCLLRYIEFGLANPGHYKVAFFTSPVVYGSPTEFLQKDSMGRRTYFHILRTVEETMAAGMLRPMDADLLAQTVWVAAHGVVTSRIYSADFPMVDAVLQAETLVDGLLAGFSVKNFFGTNIYTVN,not soluble
8,MSLKQGLQLRLSQQLAMTPQLQQAIRLLQLSTLELQQELQQALESNPLLEQIDTHEEIDTRETQDSETLDTADALEQKEMPEELPLDASWDTIYTAGTPSGTSGDYIDDELPVYQGETTQTLQDYLMWQVELTPFSDTDRAIATSIVDAVDETGYLTVPLEDILESIGDEEIDIDEVEAVLKRIQRFDPVGVAAKDLRDCLLIQLSQFDKTTPWLEEARLIISDHLDLLANHDFRTLMRVTRLKEDVLKEAVNLIQSLDPRPGQSIQTGEPEYVIPDVLVRKHNGHWTVELNSDSIPRLQINQHYASMCNNARNDGDSQFIRSNLQDAKWLIKSLESRNDTLLRVSRCIVEQQQAFFEQGEEYMKPMVLADIAQAVEMHESTISRVTTQKYLHSPRGIFELKYFFSSHVNTEGGGEASSTAIRALVKKLIAAENPAKPLSDSKLTSLLSEQGIMVARRTVAKYRESLSIPPSNQRKQLVEGHHHHHH,soluble
9,MGSDKIHHHHHHMIGKRFFQTTSKKIAFAFDIDGVLFRGKKPIAGASDALKLLNRNKIPYILLTNGGGFSERARTEFISSKLDVDVSPLQIIQSHTPYKSLVNKYSRILAVGTPSVRGVAEGYGFQDVVHQTDIVRYNRDIAPFSGLSDEQVMEYSRDIPDLTTKKFDAVLVFNDPHDWAADIQIISDAINSENGMLNTLRNEKSGKPSIPIYFSNQDLLWANPYKLNRFGQGAFRLLVRRLYLELNGEPLQDYTLGKPTKLTYDFAHHVLIDWEKRLSGKIGQSVKQKLPLLGTKPSTSPFHAVFMVGDNPASDIIGAQNYGWNSCLVKTGVYNEGDDLKECKPTLIVNDVFDAVTKTLEKYA,not soluble
10,MSLARLEPWAEKLTSDPATCRHLIEEFGSPVNVLHSGSMPRNINELVDAGIQMGVDTRIFFARKANKGLTFVDAVKDTGHGVDVASERELSQVLNRGVPGERIILSAAIKPDRLLALAIENGVIISVDSRDELDRISALVGDRVARVAPRVAPDPAVLPPTRFGERAADWGNRLTEVIPGVDIVGLHVHLHGYAAKDRALALQECCQLVDSLRECGHSPQFIDLGGGVPMSYIESEEDWIRYQSAKSATSAGYAESFTWKDDPLSNTYPFYQTPVRGNWLKDVLSKGVAQMLIDRGLRLHLEPGRSLLDGCGVTLAEVAFVKTRSDGLPLVGLAMNRTQCRTTSDDFLIDPLHITDGDVGEEIEAYLVGAYCIEDELILRRRIRFPRGVKPGDIIGIPNTAGYFMHILESASHQIPLAKNVVWPEGQLDDIDADEGHHHHHH,soluble
11,PTDILEHVLLPVATEDDALATVTALEPYEPEQVTALHVVEKGEGVPDKTPVAQSEEVAAESYAAVRTVFPDADDHTAYSRNVVEAIFHAADEVGASAIAYRSRGGGRLMQFLSGDLSLKLVTNAAIPVIALPRADS,not soluble
12,MNAADDKTIVREYFNSTGFDRWKRIYGDGEVNKVQLDIRNGHQQTVDSVIGWLKNDGNLAELSICDAGCGVGSLSIPLATEGAKVYASDISEKMVEEGKQRALETLGNAENPTFAVQDLESLSGSYHTVICLDVLIHYPQEKADEMISHLCSLAQSRIILSFAPKTCALTLLKKIGSFFPGPSKTTRAYLHREADVIKILESNGFAIQRKEFTKTRFYFSRILEATRSLEHHHHHH,soluble
13,AVVSTDEYVTRTNIYYHAGSSRLLAVGHPYYAIKKQDSNKIAVPKVSGLQYRVFRVKLPDPNKFGFPDTSFYDPASQRLVWACTGVEVGRGQPLGVGISGHPLLNKLDDTENSNKYVGNSGTDNRECISMDYKQTQLCLIGCRPPIGEHWGKGTPSNANQVKAGECPPLELLNTVLQDGDMVDTGFGAMDFTTLQANKSDVPLDICSSICKYPDYLKMVSEPYGDMLFFYLRREQMFVRHLFNRAGTVGETVPADLYIKGTTGTLPSTSYFPTPSGSMVTSDAQIFNKPYWLQRAQGHNNGICWSNQLFVTVVDTTRSTNMSVCSAVSSSDSTYKNDNFKEYLRHGEEYDLQFIFQLCKITLTADVMTYIHSMNPSILEDWNGGSGGDPLKNYTFWEVDLKEKFSADLDQFPLGRKFLLQAGL,soluble
14,MDRADLRIAVLMGTKDGAPFIDEQLQSLLAQSHPLIDLWISDDGSVDGTVPIIEAWKSRWTKGRVTLVQGPREGFAANFRSMILDRRIDADFYAFSDQDDVWEPDRLESAVQWMQAFGAEPPLMFCSRTATMTETGSLAGHSPLFRRPPSFRNALVQSIAGGNTILLNRAARDLLARASARTGFVSHDWWAYLVVTGAGGVVHYDPRPLVRYRQHAANLVGANVSWAARVSRLGRLFKGEFADWTDLNLAGLAVNRDLLTPDAATCLDLFASGRQGSLFQRLRTLLVSGVYRQTLAGTLGLYLAFVLGRILEHHHHHH,not soluble
15,AIARGPEPGPQPTMEGDVLDTLEALGYKGPLLEEQALTKAAEGGLSSPEFSELCIWLGSQIKSLCNLEESITSAGRDDLESFQLEISGFLKEMACPYSVLISGDIKDRLKKKEDCLKLLLFLSTELQASQILQNKKHKNSQLDKNSEVYQEVQAMFDTLGIPKSTTSDIPHMLNQVESKVKDILSKVQKNHVGKPLLKMDLNSEQAEQLERINDALSCEYECRRRMLMKRLDVTVQSFGWSDRAKVKTDDIARIYQPKRYALSPKTTITMAHLLAAREDLSKIIRTSSGTSREKTACAINKVGVSFSTVENELMISYLMFLQILVYFSFMSW,soluble
16,MRAPLSTYRRPQRTDFVTPTGGPFFAKQDKALNTIDLKMAHDLKLRGYRVKVAVVDEGVRSDHPLLNVEKKYGGDYMADGTRTYPDPKRQGRHGTSVALVLAGQDTDTYRGGVAPNADLYSANIGTRAGHVSDEAAFHAWNDLLGHGIKIFNNSFATEGPEGEQRVKEDRNEYHSAANKQNTYIGRLDRLVRDGALLIFAAGNGRPSGRAYSEVGSVGRTPRVEPHLQRGLIVVTAVDENGRLETWANRCGQAQQWCLAAPSTAYLPGLDKDNPDSIHVEQGTSLSAPLVTGAAVLVQDRFRWMDNDNLRTTLLTTAQDKGPYGVDPQYGWGVLDVGRAVQGPAQFAFGDFVARVTDTSTFGLEHHHHHH,not soluble
17,GMPEIHQSIAQHYHERTKYDPETIASKSQRLDWAKQPVPFKEYKIGSAIDLKPYLQETPEVFVNDTNGQWWQRLSRLLFRSYGLTARMPSMGNTVYLRAAPSAGGLYPAEVYVVSRGTPLLSPGLYNYQCRTHSLIHYWESDVWQSLQEACFWHPALESTQLAIIVTAVFYRSAWRYEDRAYRRICLDTGHLLGNIELSAAITDYRPHLIGGFIDEAVNDLLYIDPLQEGAIAVLPLADLLDIQQNISPGCTALPSATETNYPQVPDGELLKYFHHHTQISASITGKLNLPTVIQEKSLEDKYNFPFCLKISTVSAPIYWGENLSDLEITMHKRRSTRAYNGEELTFDELKALLDFTYQPQNYIDQSLDNSPDYFDLNLIETFIAVCGVQGLEAGCYYYAPKAQELRQIRFKNFRRELHFLCLGQELGRDAAAVIFHTSDLKSAIAQYGDRVYRYLHMDAGHLGQRLNLAAIQLNLGVSGIGGFFDDQVNEVLGIPNDEAVIYITTLGRPR,soluble
18,RSDSIMILSINPKTKKTEIVSIPRDTRAEIVGRGTTEKIAHAYAYGGPNMAVKSLEKLMNVPIDHYATIDMDGLHNMIDSIGGVDVVSNDTFTVDGVRFTKGQQTHVNGDQALKFIRSRKEEGAGGDFGRQQRQQIVLEAMANKIAS,not soluble
19,MLKTPLYESHMAANAKMVDFSGWSMPINYGSQIQEHNNVREDCGIFDVSHMLAVDIQGSEAEKFLRYLLANDVAKLQENKAQYGCMLNHDAGIVDDLITYKVTDEHFRIVVNAGNRESDVAWFNQNAQNFDVAITPQTDLAIVAVQGPKAVAVIKRVVTKEIATEIEALLPFSFKFFSKWMVARTGYTGEDGFEVILPATQVKKFWDSLLENGAQPAGLGARDTLRLEAGMHLYGADMDTSTTPLERGLGWSVDLSDEHRDFIGKKAYFAKKAQGVDTKWVGVVLKTKGVLRAGQEIDFDNGEKGYITSGSFSPTLKVAIGLAYVPKQADNPVVNIRGKELEVELVKPKFVKNGKSLI,not soluble
20,MAYKVYLKDLADVDDGSRCESSSILTQNQPTTIASSGFVMSNPNVKSPSLPSSATNWNSEYSVTEPTMSPADQILKDSVARKKRSMVDLTELNQLYGKGYKPPAPSARTPPTIYENLAINAPSSPSATDASSVPLTFIEKHHEFKKLVPSGTDGRFELFLKVADCFD,not soluble
21,MELEDANVTKKVELRPLIGLTRGLPPTDLETITIDAIRTHRRLVEKADELFQALPETYKTGQACGGPQHIRYIEASIEMHAQMSALNTLYSILGFIPKVVVN,soluble
22,MNMNKETHICALCERKVPKITEHHLIPREKGGRFDETTWLCVPCHKQVHALYSNYELAVRLNSLPRLKDDEKIKRYLKFIKKQPGDANVTIKKSKAIRKKGRYLEHHHHHH,not soluble
